The data set can be described thus: yeast display, Sf9 membrane polyspecificity reagent, FACS + sequencing; frameworks hold sequencing errors. Summed up:
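A nanobody's polyreactivity label depends on the gate it was sorted from. Yeast display cells were stained with 10% biotinylated, detergent-solubilized Sf9 membrane reagent for 1 hour at 4 °C, enriched on streptavidin microbeads and sorted by FACS. The low and high (top ~1%) gates were set on anti-HA fluorescence for expression and streptavidin fluorescence for reagent binding.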
In the case of “QVQLVESGGGLVQAGGSLRLSCAASGSTFAGNAMGWYRQAPGKERELVAAIDSSTGSTYYSDSVKGRFTISRDNAKNTVYLQMNSLKPEDTSVYYCNKTSVLVKLDYWGQGTQVTVSS”, the “polyreactivity (PSR sort gate)” value is listed as “low polyreactivity”. In the case of “QVQLVESGGGLVQAGGSLRLSCAASGSIFTHNAMGWSRQAPGKERELVATISYGGGRTYYADSVKGRFTISRDNAKNTVYLQMNSLKPEDTAVYYCNALRGGPFRWHGYYYWGQGTQVTVSS” it was “low polyreactivity”; in that of “QVQLVESGGGLVQAAGSLRLSCAASGLTFYYYAMGWYRQAPGKERELVAGISGSDGSTYYADSVNGRFTISRDNAKNSVYLQMNSLTPEDTAVYYCAAEYYYAWPLYYITDGIYDMYYWGQGTQVTVSS”, “low polyreactivity”; in that of “QVQLVESGGGLVQAGGSLRLSCAASGNIFVNYAMGWYRQAPGKERELVASINYNGGNTYYADSVKGRFTISRDNAKNTVYLQMNSLKPEDTAVYYCAADLPESPESYYDTDDYWGQGTQVTVSS”, “low polyreactivity”. “QVQLVESGGGLVQAGGSLRLSCAASGSTFAGNAMGWYRQAPGKERELVAAIDSSTGSTYYADSVKGRFTISRDNAKNTVYLQMNSLKPEDTAVYYCAAGYYWQYTSSSAQYAYDYWGQGTQVTVSS”: the “polyreactivity (PSR sort gate)” value is “low polyreactivity”. “QVQLVESGGGLVQAGGSLRLSCAASGFTFGRYGMGWYRQAPGKDREFVAAITGRTGTTYYADSVKGRFTISRDNAKNTVYLQMNSLKPEDTAVYYCAARGQYRSSRYPYYHWGQGTQVTVSS”: the “polyreactivity (PSR sort gate)” value is listed as “high polyreactivity”. Turning to “QVQLVESGGGLVQAGGSLRLSCAASGFTFKYYAMGWYRQAPGKERELVAGISLIDGSTYYADSVKGRFTISRDNAKNTVYLQMNSLKPEDTAVYSCAKDRAPDGHYGSYDYWGQGTQVTVSS”, the “polyreactivity (PSR sort gate)” value is “low polyreactivity”. Take “QVQLVDSGGGLVQAGGRLRLSRAASGSIFRRYPMGWYRQAPGKERELVAAISRNSGRTYYADSVKGRFTISRDNAKITDYLQMNSLKPEDTAVYYCNADTSLAANGKFDYWGQGTQGTVSS”: the “polyreactivity (PSR sort gate)” value is “high polyreactivity”.

In the case of “QVQLVESGGGLVQAGGSLRFICAASGGISSSNAMGWYRQAHGKERELVAGINSRGGSTYADSVKGRFTISRANAKNTVYLQMNSLKPEDTAVYYCAAAPTYKWRRKNYDYWGQGTQVTVAS”, the “polyreactivity (PSR sort gate)” value is on record as “high polyreactivity”. In the case of “QVQLVESGGGLVQAGGSLRLSCAASGFIFRWYAMGWYRQAPGKERELVAAISRSGDSTYYADSVKGRFTISRDNAKNTVYLQKNSLKPEDTAVYYCAADDRYYTYGYDYWGQGTQVTVSS” it was “low polyreactivity”; in that of “QVQLVESGGGLVQAGGSLRLSCAASGRIFIRYAMGWYRQAPGKERELVAAISRSGGSTYYADSVKGRITISRDNAKNTVYLQMNSLKPEDTAVYYCAAVSSSTWLEYYYWGQGTQVTVSS”, “high polyreactivity”. As for “QVQLVESGGGLVQAGGSLRLSCAASGSIIIGNTMGWYRQAPGKERELVATIRRSGSRTYYADSVKGRFTISRDNAKNTVYLQMNSLKPEDTAVYYCAADRLRTSGYKTIYDYWGQGTQVTVSS”, the entry is “low polyreactivity”; as for “QVQLVESGGGLVQAGGSLRLSCAASGRIFKSYAMGWYRQAPGKERELVAAISRGGRTNYADSVKGRFTISRDNAKNTVYLQMNSLKPEDTAFYYCAARFVVQGHSSPYDYWGQGTQVTVSS”, “high polyreactivity”; as for “QVQLVESGGGLVQAGGSLRLSCAASGRIFHNYAMGWYRQAPGKERELVAAISSSGGRTTYADSVKGRFTISRDYAKNTVYLQMNSLKPEDTAVDYCAKRYPHIGDYWGEGTQVTVSS”, “high polyreactivity”. For the sequence “QVQLVESGGGLVQAGGSLRLSCAASGLILKYYAMGWYRQAPGKEREFVAAITRRGGITYYADSVKGRFTISRDNAKNTVYLQMNSLKPEDTAVYSCAADPILGSLAYWRYSYPLYDYWGQGTQVTVSS”, the “polyreactivity (PSR sort gate)” value is “low polyreactivity”. As for “QVQLVESGGGLVQAGGSLRLSCAASGYIFFANAMGWYRPAPGKERELVAAISSDGRTYYADSVKGRFTISRDNAKNTVYLQMNRLKPEDTAVYYCAAYFSGLTYGYYVAGYDYWGQGTQVTVSS”, the entry is “low polyreactivity”; as for “QVQLVESGGGLVQAGGSLRLSCAASGIIFSDNAMGWYRQAPGKERELVAAIDWSGGSTYYADSVKGRFTISRDNAKNTVYLQMNSMKPEDSAVYDCAAEYRDYVPVNDTGDYWGQGTQVTVSS”, “low polyreactivity”.

On to “QVQLVESGGGLVQAGGSLRLSCAASGRTFGGNVMAWYRHAPGKERELVAAITWSGGSTYYADSVKGRFTISRDNAKNTVYVQMNSLKPEDTAVYYCNALWVWYRGSSVRWVGGYDYWGQGTQVTVSS”, for which the “polyreactivity (PSR sort gate)” value is “high polyreactivity”. For “QVQLVESGGGLVQAGGSLRLSCAASGSTLYRYAMGWYRQAPGKERELVAAITRGSGSTYYADSVKGRFTISRDNAKNTVYLQMNSLKPEDTAVYYCATVKRNHLDGFEYWGQGTQVTVSS”, the “polyreactivity (PSR sort gate)” value is recorded as “high polyreactivity”.

For the sequence “QVQLVESGGGLVQAGGSLRLSCAASGSTFVIYAMGWYRQAPGKERELVAAITISGGRTYYADSVKGRFTISRDNAKNTVYLQMNSLKPEDTAVYYCAATVVSTYPYGYGSTFVRDDYWGQGTQVTVSS”, the “polyreactivity (PSR sort gate)” value is recorded as “low polyreactivity”.

With “QVQLVESGGGLVQAGGSLRLSCAAYGRILSVYAMGWYRQAPGKERELVAAISSTGGTYYADSVKGRFTISRDNAKNTVYLQMNSLKPEDTADYYCAARYSTLTKYYWGQGTQVTVSS”, the “polyreactivity (PSR sort gate)” value is on record as “low polyreactivity”.

For “QLQLVESGGGIVQAGGSLRLSCAASGSTFLRNAMGRYRQAPGKKGSGVATISYDGYSTYYADSVKGRLTISRDNAKNSFYLQMNSLKPEDTAVYYCAASYSLTFWDKDDYWGQGSQVTVSS”, the “polyreactivity (PSR sort gate)” value is “low polyreactivity”. In the case of “QVQLVESGGGLVQAGGSLRLSCAASGSIFDFYAMGWYRQAPGKERELVAAIDDIDDSTYYADSVKGRFTISRDNAKNTVYLQMNCLNPEDTAVYYCAAELRPGYRSSYGLIYDYWGQGTQVTVSS” it was “low polyreactivity”; in that of “QVQLVESGGGLVQEGGSLRIICAASGFTFYRYARGWYRQEPGKERELVAAISSHGDRTYYSDSVKGRFTISRDNAKNTVYLQMNSLKPEDTAVYFCNVETLYGYFLHFYLRYYHWGQGTQVTVSS”, “high polyreactivity”; in that of “QVQLVESGGGLVQAGGSLRLSCAASGSIFYVYAMGWYRQAPGKERELVAAITNYADSVMGRFTISRDNAKNTVYLQMNSLKPEDTAVYYCAADWWRVEMDYWGLGTQVTVSS”, “low polyreactivity”. With “QVQLVESGGGLVQAGGSLRLSCAASGIIFITYAMGWYRQAPGKERELVAAITNSGGGTYYADSVKGRFTISRDNAKNTVYLQMNILKPEATAVYYCAARKTAYGYRYDYWGQGTQVTVSS”, the “polyreactivity (PSR sort gate)” value is reported as “high polyreactivity”. As for “QVQLVESGGGLVQAGGSLRLSCAASGFTFGTYAMGWYRQAPGKERELVARITSGGRTNYADSVKGRFTISRDNAKNTVYLQMNSLKPEDTAVYYCNAVNGYYWGSRFDYWGQGTQVTVSS”, the entry is “high polyreactivity”; as for “QVQLVESGGALVQAGGILRLSCAASGRTFQYNVMGWYRQAPGKEREFVAAITWNGGSTYYADSVKGRFTISRDKAKNTVYLQMISLKPEDPAVYYCAARWTKKLEYGYWGQGTQVTVSS”, “low polyreactivity”; as for “QVQLVESGGGLVQAGGSLRLSCAASGFTFYQYAMGWSRPAPGKERELVAGISRGGRTYYADSVKGRFTISRDNANNTVYLQMNSLKPEDTAVYYCAARYFYYKNVYAYRTYYYWGQGTQVTVSS”, “high polyreactivity”. As for “QVHLVESGGGLVQAGGSLRLSCAASGFTIYTYAMGGYRQAPGKERELVAAISSSGGSTSYADSVKGRFTISRDNAKITDYLQMNSLKPDDTALYYCNRGWRQQLGYWGQGTQVNVSS”, the entry is “high polyreactivity”; as for “QVQLVESGGGLVQAGGSLRLICPASGRIFLTKAIGWYRPAPGIDRELVADISRGGSTYADSVKGRFTISSDNAKNTVYLQINSLKPEDTAVYYCAPDEYSPADSRTRYDYWGQGTQVSVSS”, “low polyreactivity”; as for “QVQLVESGGGLVQAGGSLRLSCAASGSTFSNYAMGWYRQAPGKERELVAGIDWSGGSTYYADSVKGRFTISRDNAKNTVYLQMNSLKPEDTAVYYCAKRVWYHGRKLRGYYWGQGTQVTVSS”, “low polyreactivity”. As for “QVQLQESGGGLVQAGGSLRLSCAASGTISPLPAMGWYRQAPGKEREFVAGIDTGAITNYADSVKGRFTISRDNAKNTVYLQMNSLKPEDTAVYYCAVFPAAYDYYERYYTYWGQGTQVTVSS”, the entry is “high polyreactivity”; as for “QVQLVESGGGLVQAGGSLRLSCAASGSIFRVYAMGWYRQAPGKERELVAAITRGGSTYADSVKGRFTISRDNAKNTVYLQMNSLKPEDTAVYYCAARVSYWGQGTQVTVSS”, “high polyreactivity”. As for “QVQLVESGGGLVQAGGSLRLSCAASGRIFSIYAMGWYRQAPGKERELVAAIRSRGGRTHYADSVKVRFTISRDNAKNTVYLQMNSLKPEDTAVYFCNAKYFSGDNYWGQGTQVTVSS”, the “polyreactivity (PSR sort gate)” value was “high polyreactivity”. As for “QVQLVESGGGLVQAGGSLRLSCAASGSNFSFNGLGWYRQAPGKERGLVAAITTSGGSTYYADSVKGRFTISRDNAKNTVYLQMNSLTPEDTAVYYCAAVGPDNSLYEPMDYWGLGTQVTVSS”, the entry is “low polyreactivity”. For the sequence “QVQLVESGGGKVQAGRSHRLTCAASGSIFYTYPMGWYRQAPGKERELVAAIRSSDGSTYYADSVKGRFTISRDYAKNTVYIQMNSLKSEYTGVYYCAAENIPGEGYYHFEYDYWGQGTQVTVSS”, the “polyreactivity (PSR sort gate)” value is on record as “low polyreactivity”. For the sequence “QVQLVESGGGLVQAGGSLRLSCAASGFTFKYNAMGWNRQAPGKERELVASISSGSTNYADSVKGRFTISRDNAKNTVYLQMNSLKPEDTAVYYCAASVSRGKRVRYGYLFKMDYWGQGTLVTVSS”, the “polyreactivity (PSR sort gate)” value was “low polyreactivity”. As for “QVQLVESGGGLLQAGGSLPLSCAASGSIFPGYAMGWYRQAPGKERELVATITWSGGSTYYADSVKGRFTISRDNAKNTVYLQMNSLNPADTAVYYCNADSNWYYQWNYYGLYDYWGQATQVTVSS”, the “polyreactivity (PSR sort gate)” value was “low polyreactivity”.

On to “QVQLVESGGGLVQAGGSLRLSCAASGHIFYAYAMASYRQAPGKERELVASITYRGVSTYYADSVKARFTISRDNAKNTVYLQMHSLKPEDTAVYYCAAGRSRYLWFGRDFDYWGQGTQVTVSS”, for which the “polyreactivity (PSR sort gate)” value is recorded as “low polyreactivity”.

For the origin of these results see the nanobody polyreactivity screen of Harvey et al. (2022).
